Measured values reported in paper PMC11257983 (2024).

B1: Flag-CNK^2–549 [Drosophila] / GST-HYP [Drosophila] (parent complex)
chain 1: AYINIAEWTPDQVTDWIKGLDESMKGYLYEFSKQEIGGRALLNIRPYELENLGMLRIGHQEIVLEAVENLRNFHYHLKNDNLQFMALHVATAAKNLHRELARNHAESTKIDTRILHDITRTIATLKPLVGSLERTPFRKQEMYREYCGNVLKCGLELATIAHRDRFALQPVPAIRQSAERLENLANFVIQDISDPMVLQPASLNLVTLKKRESELGFNIESSYNGIHRVTDIKYNSPAHNSGKIEDGDEIVQINYQTVVGWQHRTVLEHLREALPDVVLTVKKRPKHTKMFGQIYMQPYRLPSKKRNMAARWAAQMPSPRAAFLTLDTEQLATGGTGSAVPDPSKSLSSEKREVLTKANPVSSASDSDSSCSDIPTPTDPKLAAREIRLYYPKPRALLQRRNTICGCEYLSLKNSDLVVPSWHERKPGIGSPTNCDPGSPSIRDKSISFGYGLEMAARPTTCIGIAGDTSTDKARRMFHEARKLKQLTEDSQREFLVDRYKPGVSKVVRFDAKEDYVMKNEKFICNVENTILETFEPIPFADEGDEDA
chain 2: MGEETINSTQNKTRTKTTRPKAVYLWTVSDVLKWYRRHCGEYTQYEQLFAQHDITGRALLRITDSSLQRMGVTDNRDREAIWREIVKQRLKTDIMEIRDMERLNIY

Variants of: B1
Assay: GST pull-down, immunoblot quantification; S2 cells; GST-HYP + RRKM co-expressed; anti-Flag (CNK) blot; parent: 1

Compared with chain 1 AYINIAEWTPDQVTDWIKGLDESMKGYLYEFSKQEIGGRALLNIRPYELENLGMLRIGHQEIVLEAVENLRNFHYHLKNDNLQFMALHVATAAKNLHRELARNHAESTKIDTRILHDITRTIATLKPLVGSLERTPFRKQEMYREYCGNVLKCGLELATIAHRDRFALQPVPAIRQSAERLENLANFVIQDISDPMVLQPASLNLVTLKKRESELGFNIESSYNGIHRVTDIKYNSPAHNSGKIEDGDRIRQINYQTVVGWQHRTVLEHLREALPDVVLTVKKRPKHTKMFGQIYMQPYRLPSKKRNMAARWAAQMPSPRAAFLTLDTEQLATGGTGSAVPDPSKSLSSEKREVLTKANPVSSASDSDSSCSDIPTPTDPKLAAREIRLYYPKPRALLQRRNTICGCEYLSLKNSDLVVPSWHERKPGIGSPTNCDPGSPSIRDKSISFGYGLEMAARPTTCIGIAGDTSTDKARRMFHEARKLKQLTEDSQREFLVDRYKPGVSKVVRFDAKEDYVMKNEKFICNVENTILETFEPIPFADEGDEDA [chain 1 E249R, chain 1 V251R], chain 1 AYINIAEWTPDQVTDWIKGLDESMKGYLYEFSKQEIGGRALLNIRPYELENLGMLRIGHQEIVLEFVENLRNRHYHLKNDNLQFMALHVATAAKNLHRELARNHAESTKIDTRILHDITRTIATLKPLVGSLERTPFRKQEMYREYCGNVLKCGLELATIAHRDRFALQPVPAIRQSAERLENLANFVIQDISDPMVLQPASLNLVTLKKRESELGFNIESSYNGIHRVTDIKYNSPAHNSGKIEDGDEIVQINYQTVVGWQHRTVLEHLREALPDVVLTVKKRPKHTKMFGQIYMQPYRLPSKKRNMAARWAAQMPSPRAAFLTLDTEQLATGGTGSAVPDPSKSLSSEKREVLTKANPVSSASDSDSSCSDIPTPTDPKLAAREIRLYYPKPRALLQRRNTICGCEYLSLKNSDLVVPSWHERKPGIGSPTNCDPGSPSIRDKSISFGYGLEMAARPTTCIGIAGDTSTDKARRMFHEARKLKQLTEDSQREFLVDRYKPGVSKVVRFDAKEDYVMKNEKFICNVENTILETFEPIPFADEGDEDA [chain 1 A66F, chain 1 F73R] is higher in ratio to parent: 0.08 for the first, 0.58 for the second.

Variant chain 1 AYINIAEWTPDQVTDWIKGLDESMKGYLYEFSKQEIGGRALLNIRPYELENLGMLRIGHQEIVLEFVENLRNFHYHLKNDNLQFMALHVATAAKNLHRELARNHAESTKIDTRILHDITRTIATLKPLVGSLERTPFRKQEMYREYCGNVLKCGLELATIAHRDRFALQPVPAIRQSAERLENLANFVIQDISDPMVLQPASLNLVTLKKRESELGFNIESSYNGIHRVTDIKYNSPAHNSGKIEDGDEIVQINYQTVVGWQHRTVLEHLREALPDVVLTVKKRPKHTKMFGQIYMQPYRLPSKKRNMAARWAAQMPSPRAAFLTLDTEQLATGGTGSAVPDPSKSLSSEKREVLTKANPVSSASDSDSSCSDIPTPTDPKLAAREIRLYYPKPRALLQRRNTICGCEYLSLKNSDLVVPSWHERKPGIGSPTNCDPGSPSIRDKSISFGYGLEMAARPTTCIGIAGDTSTDKARRMFHEARKLKQLTEDSQREFLVDRYKPGVSKVVRFDAKEDYVMKNEKFICNVENTILETFEPIPFADEGDEDA [chain 1 A66F] has a ratio to parent of 0.87.

Variants of: B1
Assay: GST pull-down, immunoblot quantification; S2 cells; only Flag-CNK2–549 and GST-HYP co-expressed; anti-Flag blot; parent: 1

First: chain 1 AYINIAEWTPDQVTDWIKGLDESMKGYLYEFSKQEIGGRALLNIRPYELENLGMLRIGHQEIVLEAVENLRNFHYHLKNDNLQFMALHVATAAKNLHRELARNHAESTKIDTRILHDITRTIATLKPLVGSLERTPFRKQEMYREYCGNVLKCGLELATIAHRDRFALQPVPAIRQSAERLENLANFVIQDISDPMVLQPASLNLVTLKKRESELGFNIESSYNGIHRVTDIKYNSPAHNSGKIEDGDRIRQINYQTVVGWQHRTVLEHLREALPDVVLTVKKRPKHTKMFGQIYMQPYRLPSKKRNMAARWAAQMPSPRAAFLTLDTEQLATGGTGSAVPDPSKSLSSEKREVLTKANPVSSASDSDSSCSDIPTPTDPKLAAREIRLYYPKPRALLQRRNTICGCEYLSLKNSDLVVPSWHERKPGIGSPTNCDPGSPSIRDKSISFGYGLEMAARPTTCIGIAGDTSTDKARRMFHEARKLKQLTEDSQREFLVDRYKPGVSKVVRFDAKEDYVMKNEKFICNVENTILETFEPIPFADEGDEDA [chain 1 E249R, chain 1 V251R]
Second: chain 1 AYINIAEWTPDQVTDWIKGLDESMKGYLYEFSKQEIGGRALLNIRPYELENLGMLRIGHQEIVLEFVENLRNRHYHLKNDNLQFMALHVATAAKNLHRELARNHAESTKIDTRILHDITRTIATLKPLVGSLERTPFRKQEMYREYCGNVLKCGLELATIAHRDRFALQPVPAIRQSAERLENLANFVIQDISDPMVLQPASLNLVTLKKRESELGFNIESSYNGIHRVTDIKYNSPAHNSGKIEDGDEIVQINYQTVVGWQHRTVLEHLREALPDVVLTVKKRPKHTKMFGQIYMQPYRLPSKKRNMAARWAAQMPSPRAAFLTLDTEQLATGGTGSAVPDPSKSLSSEKREVLTKANPVSSASDSDSSCSDIPTPTDPKLAAREIRLYYPKPRALLQRRNTICGCEYLSLKNSDLVVPSWHERKPGIGSPTNCDPGSPSIRDKSISFGYGLEMAARPTTCIGIAGDTSTDKARRMFHEARKLKQLTEDSQREFLVDRYKPGVSKVVRFDAKEDYVMKNEKFICNVENTILETFEPIPFADEGDEDA [chain 1 A66F, chain 1 F73R]
The ratio to parent of the first is lower: 0.05 for the first, 0.12 for the second.

chain 1 AYINIAEWTPDQVTDWIKGLDESMKGYLYEFSKQEIGGRALLNIRPYELENLGMLRIGHQEIVLEFVENLRNFHYHLKNDNLQFMALHVATAAKNLHRELARNHAESTKIDTRILHDITRTIATLKPLVGSLERTPFRKQEMYREYCGNVLKCGLELATIAHRDRFALQPVPAIRQSAERLENLANFVIQDISDPMVLQPASLNLVTLKKRESELGFNIESSYNGIHRVTDIKYNSPAHNSGKIEDGDEIVQINYQTVVGWQHRTVLEHLREALPDVVLTVKKRPKHTKMFGQIYMQPYRLPSKKRNMAARWAAQMPSPRAAFLTLDTEQLATGGTGSAVPDPSKSLSSEKREVLTKANPVSSASDSDSSCSDIPTPTDPKLAAREIRLYYPKPRALLQRRNTICGCEYLSLKNSDLVVPSWHERKPGIGSPTNCDPGSPSIRDKSISFGYGLEMAARPTTCIGIAGDTSTDKARRMFHEARKLKQLTEDSQREFLVDRYKPGVSKVVRFDAKEDYVMKNEKFICNVENTILETFEPIPFADEGDEDA [chain 1 A66F] gave a ratio to parent of 0.29.
